Test results from patent US20180072805A1.

Biological target: recombinant human soluble Flt-1 (human) (UniProt P17948)
Assay: competition ELISA, inhibition of human sFlt-1:VEGF binding

Chain of UniProt P17948 (P17948 other isoform, or with tags, fused parts or gaps limits assumed): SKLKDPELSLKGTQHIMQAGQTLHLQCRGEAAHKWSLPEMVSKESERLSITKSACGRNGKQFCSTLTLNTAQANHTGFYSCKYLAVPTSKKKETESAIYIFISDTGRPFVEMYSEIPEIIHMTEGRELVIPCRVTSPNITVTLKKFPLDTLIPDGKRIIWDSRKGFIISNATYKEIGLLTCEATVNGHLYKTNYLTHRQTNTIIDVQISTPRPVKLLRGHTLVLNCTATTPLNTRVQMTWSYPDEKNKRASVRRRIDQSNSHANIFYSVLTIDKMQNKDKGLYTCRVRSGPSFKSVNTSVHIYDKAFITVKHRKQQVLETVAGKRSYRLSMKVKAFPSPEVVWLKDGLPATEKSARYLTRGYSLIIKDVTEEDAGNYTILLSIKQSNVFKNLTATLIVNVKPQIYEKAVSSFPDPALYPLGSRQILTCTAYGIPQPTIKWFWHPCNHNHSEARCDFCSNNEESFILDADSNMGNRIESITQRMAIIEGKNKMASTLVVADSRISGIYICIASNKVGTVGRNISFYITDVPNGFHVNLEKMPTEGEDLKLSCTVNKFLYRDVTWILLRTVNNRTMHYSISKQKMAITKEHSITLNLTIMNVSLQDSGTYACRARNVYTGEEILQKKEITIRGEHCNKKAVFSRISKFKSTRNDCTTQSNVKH

Abcam56300 (antibody)
IC50 (read off the curve): 10 ng/mL
